From the supplement of paper PMC6757056
± gives the standard deviation of the averaged measurements.

B1: library; a variant is named by its letters at N, in order (parent)
chain: GCUGUCACCGGUGUAUUACCCUAGUGGUCGACCGGUCUGAUGAGUCUNNNNNNAGACGAAACAGC

Assays:
[1] = variants of: B1; assay: FACS-Seq fitted mean relative fluorescence mCherry/BFP without ligand (log10 relative fluorescence); ligand: hypoxanthine (xanthine aptamer); higher = higher reporter protein expression; conditions: HEK293T, ligand present: no
Method in brief: (§1)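 The ribozyme switch sat in an mCherry reporter, delivered by lentivirus into HEK293T libraries along with an EF1α-BFP marker. Enriched cells were incubated 48 h with or without ligand, sorted into 6 bins by mCherry/BFP, and bin genomic DNA was PCR-amplified, barcoded and MiSeq-sequenced. Fluorescence equals the fitted normal mean of the bin counts after normalization. Those log10(mCherry/BFP) means were scaled to five spiked-in control ribozymes.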

[2] = variants of: B1; assay: normalized RNA/DNA level with ligand (relative to sTRSVctl = 100) (log10 (% of sTRSVctl)); ligand: hypoxanthine (xanthine aptamer); higher = less ribozyme self-cleavage, higher mRNA level; conditions: ligand concentration (+) RNA-Seq: 5 mM, HEK293T, reporter: mCherry (pCS4076), ligand present: yes
Procedure: (§2)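 Hammerhead (sTRSV) ribozyme switch libraries with a ligand aptamer grafted on stem I and a randomized N4-6 loop II, cloned into the 3' UTR of mCherry and transiently transfected into HEK293T cells; RNA-Seq 72 h post transfection with ligand added 1 h before transfection; RNA read count / plasmid DNA read count normalized to the non-cleaving sTRSVctl (x100), log10; sequences with >100 DNA reads. FACS-Seq: lentiviral library sorted into 6 bins after 48 h ligand, log-normal fit mean of mCherry/BFP scaled to controls. Printed sequences are partial switch sequences.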

[3] = variants of: B1; assay: normalized RNA/DNA level without ligand (relative to sTRSVctl = 100) (log10 (% of sTRSVctl)); ligand: hypoxanthine (xanthine aptamer); higher = less ribozyme self-cleavage, higher mRNA level; conditions: HEK293T, reporter: mCherry (pCS4076), ligand present: no
Procedure: as §2

[4] = variants of: B1; assay: FACS-Seq fitted mean relative fluorescence mCherry/BFP with ligand (log10 relative fluorescence); ligand: hypoxanthine (xanthine aptamer); ligand concentration (+) FACS-Seq: 5 mM; higher = higher reporter protein expression; conditions: HEK293T, ligand present: yes
Method in brief: as §1

Row | Variant | FACS-Seq fitted mean (log10) [1] | normalized RNA/DNA level with ligand (log10) [2] | normalized RNA/DNA level without ligand (log10) [3] | FACS-Seq fitted mean (log10) [4]
1 | CAGCAU | 0.36 ± 0.085 | 1.947 ± 0.0067 | 1.71 ± 0.029 | 0.642 ± 0.028
2 | AACUAU | 0.469 ± 0.04 | 1.9 ± 0.041 | 1.787 ± 0.012 | 0.51 ± 0.053
3 | AACUAC | 0.621 ± 0.011 | 1.922 ± 0.014 | 1.841 ± 0.0075 | 0.653 ± 0.028
4 | AACUAA | 0.536 ± 0.12 | 1.937 ± 0.014 | 1.81 ± 0.035 | 0.663 ± 0.043
5 | AACUAG | 0.232 ± 0.032 | 1.819 ± 0.011 | 1.473 ± 0.0054 | 0.521 ± 0.045
6 | UACCCC | 0.5672 ± 0.0022 | 1.95 ± 0.062 | 1.9 ± 0.064 | 0.523 ± 0.047
7 | GACCAG | 0.136 ± 0.033 | 1.865 ± 0.0019 | 1.55 ± 0.073 | 0.531 ± 0.013
8 | GACCAA | 0.126 ± 0.012 | 1.9242 ± 0.00022 | 1.81 ± 0.019 | 0.21 ± 0.049
9 | CACCUU | -0.395 ± 0.03 | 1.97 ± 0.03 | 1.87 ± 0.044 | -0.0406 ± 0.045
10 | UAGCGG | 0.335 ± 0.051 | 1.875 ± 0.017 | 1.542 ± 0.011 | 0.534 ± 0.035
11 | UAGCGA | 0.324 ± 0.049 | 1.89 ± 0.041 | 1.65 ± 0.025 | 0.447 ± 0.054
12 | AACUGG | 0.285 ± 0.031 | 1.7871 ± 0.0011 | 1.42 ± 0.039 | 0.67312 ± 0.00058
13 | AACUGU | 0.343 ± 0.028 | 1.89 ± 0.027 | 1.72 ± 0.014 | 0.538 ± 0.014
14 | AACUGC | 0.74 ± 0.033 | 1.91 ± 0.053 | 1.87 ± 0.025 | 0.697 ± 0.048
15 | AACUGA | -0.0809 ± 0.032 | 1.94 ± 0.035 | 1.716 ± 0.012 | -0.204 ± 0.016
16 | AAGAAA | 0.272 ± 0.028 | 1.91 ± 0.029 | 1.605 ± 0.01 | 0.598 ± 0.015
17 | AAGAAG | -0.35 ± 0.015 | 1.545 ± 0.013 | 1.04 ± 0.028 | 0.459 ± 0.029
18 | AAGAAU | 0.521 ± 0.035 | 1.906 ± 0.0038 | 1.65 ± 0.018 | 0.5797 ± 0.0012
19 | UACCGU | 0.0177 ± 0.0044 | 1.95 ± 0.08 | 1.7185 ± 0.00046 | 0.448 ± 0.028
20 | UACCGA | 0.439 ± 0.021 | 1.91 ± 0.041 | 1.75 ± 0.024 | 0.551 ± 0.044
21 | UACCGG | 0.141 ± 0.038 | 1.91 ± 0.0042 | 1.63 ± 0.038 | 0.197 ± 0.15
22 | AACGUG | 0.285 ± 0.021 | 1.817 ± 0.013 | 1.3 ± 0.041 | 0.737 ± 0.012
23 | AACGUC | 0.221 ± 0.029 | 2.01 ± 0.052 | 1.949 ± 0.0078 | 0.255 ± 0.0059
24 | AACGUA | 0.494 ± 0.032 | 1.86 ± 0.058 | 1.702 ± 0.0047 | 0.516 ± 0.1

Row | Variant | FACS-Seq fitted mean (log10) [1] | normalized RNA/DNA level with ligand (log10) [2] | normalized RNA/DNA level without ligand (log10) [3] | FACS-Seq fitted mean (log10) [4]
25 | AACCGA | 0.422 ± 0.041 | 1.9477 ± 0.0019 | 1.72 ± 0.019 | 0.533 ± 0.044
26 | AACCGC | -0.101 ± 0.015 | 1.916 ± 0.014 | 1.79 ± 0.036 | 0.124 ± 0.016
27 | AACCGG | 0.0275 ± 0.00055 | 1.877 ± 0.011 | 1.43 ± 0.031 | 0.526 ± 0.015
28 | AACCGU | 0.798 ± 0.12 | 1.889 ± 0.0024 | 1.75 ± 0.057 | 0.637 ± 0.047
29 | UACUGU | 0.399 ± 0.032 | 1.95 ± 0.066 | 1.67 ± 0.011 | 0.638 ± 0.036
30 | GAGCAA | 0.362 ± 0.027 | 1.892 ± 0.013 | 1.581 ± 0.0039 | 0.596 ± 0.09
31 | GAGCAC | 0.773 ± 0.029 | 1.89 ± 0.037 | 1.71 ± 0.05 | 0.682 ± 0.074
32 | GAGCAG | -0.00628 ± 0.045 | 1.67 ± 0.027 | 1.19 ± 0.024 | 0.5054 ± 0.0013
33 | GACGCU | 0.261 ± 0.12 | 1.94 ± 0.037 | 1.893 ± 0.0077 | 0.508 ± 0.048
34 | CAGCGG | 0.2617 ± 0.00076 | 1.9 ± 0.031 | 1.48 ± 0.029 | 0.612 ± 0.059
35 | AACGCG | -0.0882 ± 0.017 | 1.812 ± 0.011 | 1.33 ± 0.08 | 0.162 ± 0.024
36 | AACGCC | 0.0156 ± 0.023 | 1.94 ± 0.048 | 1.84 ± 0.037 | 0.1 ± 0.21
37 | AACGCU | 0.624 ± 0.015 | 1.94 ± 0.032 | 1.85 ± 0.023 | 0.548 ± 0.11
38 | CACGAA | 0.226 ± 0.02 | 1.87 ± 0.02 | 1.72 ± 0.037 | 0.363 ± 0.022
39 | AACAUG | 0.137 ± 0.021 | 1.861 ± 0.0051 | 1.44 ± 0.042 | 0.447 ± 0.013
40 | AACGAG | 0.131 ± 0.0019 | 1.75 ± 0.031 | 1.22 ± 0.062 | 0.553 ± 0.084
41 | AACGAA | -0.1232 ± 0.00029 | 1.88 ± 0.068 | 1.67 ± 0.042 | -0.425 ± 0.21
42 | AACGAC | 0.305 ± 0.007 | 1.94 ± 0.02 | 1.79 ± 0.028 | 0.279 ± 0.064
43 | GACUCG | 0.331 ± 0.066 | 1.86 ± 0.051 | 1.63 ± 0.083 | 0.567 ± 0.081
44 | UAGAUG | -0.00441 ± 0.085 | 1.9 ± 0.081 | 1.615 ± 0.0023 | 0.344 ± 0.03
45 | GAGAUC | 0.247 ± 0.015 | 1.94 ± 0.021 | 1.83 ± 0.053 | 0.211 ± 0.004
46 | GAGAUG | 0.1129 ± 0.00042 | 1.65 ± 0.064 | 1.14 ± 0.05 | 0.707 ± 0.033
47 | GAGAUA | 0.345 ± 0.013 | 1.869 ± 0.015 | 1.65 ± 0.0036 | 0.362 ± 0.087
48 | AAGCGA | 0.221 ± 0.0035 | 1.91 ± 0.052 | 1.43 ± 0.024 | 0.391 ± 0.04

Row | Variant | FACS-Seq fitted mean (log10) [1] | normalized RNA/DNA level with ligand (log10) [2] | normalized RNA/DNA level without ligand (log10) [3] | FACS-Seq fitted mean (log10) [4]
49 | AAGCGG | -0.261 ± 0.031 | 1.65 ± 0.026 | 1.2 ± 0.027 | 0.442 ± 0.054
50 | GACGAC | -0.384 ± 0.063 | 1.9292 ± 0.0013 | 1.67 ± 0.017 | -0.465 ± 0.092
51 | GACGAU | 0.412 ± 0.021 | 1.91 ± 0.027 | 1.75 ± 0.023 | 0.672 ± 0.053
52 | GACGAG | 0.184 ± 0.028 | 1.76 ± 0.056 | 1.31 ± 0.017 | 0.597 ± 0.026
53 | GACGAA | 0.408 ± 0.047 | 1.9 ± 0.056 | 1.7 ± 0.0095 | 0.566 ± 0.012
54 | AACGGU | 0.118 ± 0.036 | 1.88 ± 0.034 | 1.577 ± 0.01 | 0.3457 ± 0.0031
55 | AACGGG | 0.0434 ± 0.0087 | 1.83 ± 0.074 | 1.38 ± 0.036 | 0.516 ± 0.021
56 | AACGGC | 0.644 ± 0.088 | 1.95 ± 0.02 | 1.816 ± 0.012 | 0.696 ± 0.074
57 | AACGGA | 0.375 ± 0.033 | 1.917 ± 0.01 | 1.62 ± 0.035 | 0.525 ± 0.041
58 | AAGCAA | 0.4932 ± 0.00094 | 1.899 ± 0.0026 | 1.61 ± 0.053 | 0.591 ± 0.03
59 | AAGCAG | -0.122 ± 0.013 | 1.64 ± 0.044 | 1.19 ± 0.02 | 0.501 ± 0.039
60 | AACCUG | 0.131 ± 0.046 | 1.81 ± 0.02 | 1.38 ± 0.028 | 0.4422 ± 0.0015
61 | UAGCAA | 0.0307 ± 0.043 | 1.9 ± 0.026 | 1.739 ± 0.0055 | 0.155 ± 0.024
62 | UAGCAG | 0.215 ± 0.033 | 1.87 ± 0.02 | 1.61 ± 0.038 | 0.507 ± 0.05
63 | GAGACG | 0.287 ± 0.0096 | 1.749 ± 0.015 | 1.25 ± 0.055 | 0.807 ± 0.067
64 | GAGACU | -0.451 ± 0.03 | 1.96 ± 0.047 | 1.83 ± 0.031 | -0.205 ± 0.035
65 | GAGACA | 0.3113 ± 0.00099 | 1.905 ± 0.0057 | 1.68 ± 0.029 | 0.548 ± 0.014
66 | UACUAA | 0.00308 ± 0.026 | 1.91 ± 0.023 | 1.8 ± 0.025 | 0.206 ± 0.073
67 | UACUAG | 0.177 ± 0.053 | 1.9142 ± 0.0014 | 1.65 ± 0.033 | 0.506 ± 0.038
68 | AACCCA | 0.217 ± 0.063 | 1.92 ± 0.022 | 1.85 ± 0.042 | 0.245 ± 0.0026
69 | AACCCG | 0.577 ± 0.077 | 1.84 ± 0.088 | 1.378 ± 0.013 | 0.751 ± 0.043
70 | GAGAAA | 0.546 ± 0.035 | 1.88 ± 0.021 | 1.597 ± 0.015 | 0.651 ± 0.048
71 | GAGAAC | 0.417 ± 0.072 | 1.912 ± 0.0063 | 1.63 ± 0.038 | 0.735 ± 0.033
